Data set [1] deals with OC[C@H]1O[C@H](O[C@H]2O[C@H](CO)[C@@H](O)[C@H](O)[C@H]2O)[C@H](O)[C@@H](O)[C@@H]1O. The experiment in a line: purified protein.
In a further data set the target is Ag85c (Mycobacterium tuberculosis, UniProt P9WQN9). The experiment in a line: biochemical.

Read-outs that look alike come from different tables or passages of the source.

Ag85c, sequence (P9WQN9 46-340 limits assumed): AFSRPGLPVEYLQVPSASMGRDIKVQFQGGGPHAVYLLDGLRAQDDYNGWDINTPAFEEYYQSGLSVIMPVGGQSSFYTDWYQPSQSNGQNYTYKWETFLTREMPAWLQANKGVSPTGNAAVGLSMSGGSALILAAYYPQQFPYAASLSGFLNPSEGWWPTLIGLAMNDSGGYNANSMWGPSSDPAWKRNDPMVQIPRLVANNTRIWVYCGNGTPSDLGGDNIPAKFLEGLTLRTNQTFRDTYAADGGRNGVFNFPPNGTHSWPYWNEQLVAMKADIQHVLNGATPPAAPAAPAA

The Km is the concentration of substrate that gives half-maximal velocity. Regarding “Ag85c (Mycobacterium tuberculosis H37Rv)”, the Km in data set [1] (Ser-His-Asp catalytic triad at the trehalose binding site) stood at 16.9 ± 5.3 µM.

Broadly, the Ki is a dissociation constant, usually derived from enzyme kinetics or from competition with a known ligand. Lower therefore signals a stronger hold on the target. As for `CCCCCC(=O)OC[C@H]1O[C@H](O[C@H]2O[C@H](COC(=O)CCCCC)[C@@H](O)[C@H](O)[C@H]2O)[C@H](O)[C@@H](O)[C@@H]1O` [2b, 6,6’-di-hexanoyltrehalose], the affinity on Ag85c, expressed as Ki, was 355 ± 106 µM.

For orientation: kcat means the number of substrate molecules converted per active site and unit of time at saturation. For orientation: kcat/Km means the turnover number divided by the Michaelis constant. Regarding “Ag85a (Mycobacterium tuberculosis H37Rv)”, in data set [1], the Km is 175 µM, the kcat is 0.014 s⁻¹ and the catalytic efficiency (kcat/Km) turned out to be 82 M⁻¹ s⁻¹.

Consider “Ag85b (Mycobacterium tuberculosis H37Rv)”, for which, in data set [1], the Km came to 112 µM, the kcat stood at 0.003 s⁻¹ and the kcat/Km came to 30 M⁻¹ s⁻¹.

The values above are taken from publication PMC11042539 (Journal of the American Chemical Society, 2011).
